Assay results from US20180355061A1 (Janssen / Centocor, published 2018).
Positions count from the first letter of the chain named. Numbers in names are those of the source.

B1: PD1B1085 (antibody, human IgG1, kappa, V domains shown)
VH: QVQLVQSGSELKKPGASVKVSCKASGYTFTDYSMHWVRQAPGQGLEWMGWINIETGYPTYAQGFTGRFVFSLDTSVSTAYLQISSLKAEDTAVYFCARDYYGTYFYAMDYWGQGTLVTVSS
VL: EIVLTQSPATLSLSPGERATLSCTASSSVSSSYLHWYQQKPGLAPRLLIYSTSNLASGIPDRFSGSGSGTDYTLTISRLEPEDFAVYYCHQYHRSPLTFGQGTKLEIKR
notes: also called VH PD1H585; VL PD1L469
B2: PD1B1089 (antibody, human IgG1, kappa, V domains shown)
VH: B1 VH with Y57E
VL: B1 VL with S30P
notes: also called VH PD1H405; VL PD1L652
B3: PD1B1091 (antibody, human IgG1, kappa, V domains shown)
VH: B1 VH with Y57H
VL: B1 VL with V29F
notes: also called VH PD1H586; VL PD1L651
B4: PD1B1095 (antibody, human IgG1, kappa, V domains shown)
VH: B1 VH with Y57W
VL: B1 VL with S30P
notes: also called VH PD1H587; VL PD1L652
B5: PD1B1088 (antibody, human IgG1, kappa, V domains shown)
VH: B1 VH with Y57E
VL: B1 VL with V29F
notes: also called VH PD1H405; VL PD1L651
B6: PD1B1093 (antibody, human IgG1, kappa, V domains shown)
VH: B1 VH
VL: B1 VL with S30P
notes: also called VH PD1H585; VL PD1L652
B7: PD1B1092 (antibody, human IgG1, kappa, V domains shown)
VH: B1 VH with Y57W
VL: B1 VL with V29F
notes: also called VH PD1H587; VL PD1L651
B8: PD1B1087 (antibody, human IgG1, kappa, V domains shown)
VH: B1 VH with Y57W
VL: B1 VL
notes: also called VH PD1H587; VL PD1L469
B9: Fab variant of PD1B878 with VH PD1H585 (E57Y) (Fab, V domains shown)
VH: B1 VH
VL: EIVLTQSPATLSLSPGERATLSCTASSSVSSSYLHWYQQKPGLAPRLLIYSTSNLASGIPDRFSGSGSGTDYTLTISRLEPEDFAVYYCHQYHRSPLTFGQGTKLEIK
notes: Soluble Fab in E. coli supernatant; pairing with the parental VL inferred from the non-combinatorial library design
B10: Fab variant of PD1B878 with VH PD1H587 (E57W) (Fab, V domains shown)
VH: B1 VH with Y57W
VL: B9 VL
notes: Soluble Fab in E. coli supernatant; pairing with the parental VL inferred
B11: Fab variant of PD1B878 with VL PD1L652 (S30P) (Fab, V domains shown)
VH: B1 VH with Y57E
VL: B9 VL with S30P
notes: Soluble Fab in E. coli supernatant; pairing with the parental VH inferred
B12: Fab variant of PD1B878 with VL PD1L651 (V29F) (Fab, V domains shown)
VH: B1 VH with Y57E
VL: B9 VL with V29F
notes: as for B11
B13: Fab variant of PD1B878 with VH PD1H586 (E57H) (Fab, V domains shown)
VH: B1 VH with Y57H
VL: B9 VL
notes: as for B10
B14: PD1B845 (antibody, human IgG1, kappa, V domains shown)
VH: QVQLVQSGAEVKKPGASVKVSCKASGYTFTTYWMHWVRQAPGQGLEWMGEINPNNAGINYAQKFQGRVTLTVDKSISTAYMELSRLRSDDTAVYYCTIDYYDYGGYWGQGTLVTVSS
VL: DIQMTQSPSSLSASVGDRVTITCKASQNVGTNVAWYQQKPEKAPKSLIYSASYRYSGVPSRFSGSGSGTDFTLTISSLQPEDFATYYCQQYNIYPYTFGQGTKLEIKR
notes: G56A variant of PD1B750, IgG1; tested as crude supernatant in SPR; also called VH PD1H399; VL PD1L470
B15: PD1B847 (antibody, human IgG1, kappa, V domains shown)
VH: B14 VH with N55Q, A56G
VL: B14 VL
notes: N55Q variant of PD1B750, IgG1; tested as crude supernatant in SPR; also called VH PD1H401; VL PD1L470
B16: PD1B850 (antibody, human IgG1, kappa, V domains shown)
VH: B14 VH with A56I
VL: B14 VL
notes: G56I variant of PD1B750, IgG1; tested as crude supernatant in SPR; also called VH PD1H404; VL PD1L470
B17: PD1B846 (antibody, human IgG1, kappa, V domains shown)
VH: B14 VH with N55D
VL: B14 VL
notes: N55D, G56A variant of PD1B750, IgG1; tested as crude supernatant in SPR; also called VH PD1H400; VL PD1L470
B18: PD1B848 (antibody, human IgG1, kappa, V domains shown)
VH: B14 VH with N55K, A56G
VL: B14 VL
notes: N55K variant of PD1B750, IgG1; tested as crude supernatant in SPR; also called VH PD1H402; VL PD1L470
B19: PD1B506 (antibody, human IgG1, kappa, V domains shown)
VH: QVQLQQPGAELVKPGASVKLSCKASGYTFTTYWMHWVKQRPGQGLEWIGEINPNNGGINYNEKFKKKATLTVDKSSSTAYMQLSSLTSEDSAVYYCTIDYYDYGGYWGQGTTLTVSS
VL: DIVMTQSQKFMSTSVRDRVSVTCKASQNVGTNVAWYQQKPGQSPKALIYSASYRYSGVPDRFTGSGSGTDFTLTITNVQSEDLAEYFCQQYNIYPYTFGSGTKLEMKR
notes: Parental mouse antibody cloned as chimeric human IgG1; Bin 5; also called VH PD1H90; VL PD1L28
B20: PD1B505 (antibody, human IgG1, kappa, V domains shown)
VH: DVQLQESGPELKKPGETVKISCKASGYTFTDYSMHWVKQAPGKGLKWMGWINIETGEPTYADDFKGRFAFSLETSASTAYLQINNLKNEDTATYFCARDYYGTYFYAMDYWGQGTTLTVSS
VL: QIVLTQSPAIMSASLGERVTMTCTASSSVSSSYLHWYQQKPGSSPKLWIYSTSNLASGVPARFSGSGSGTSYSLTISSMEAEDAATYYCHQYHRSPLTFGAGTKLELKR
notes: Parental mouse antibody cloned as chimeric human IgG1; Bin 1; also called VH PD1H93; VL PD1L30
B21: PD1B849 (antibody, human IgG1, kappa, V domains shown)
VH: B14 VH with N55E, A56G
VL: B14 VL
notes: N55E variant of PD1B750, IgG1; also called VH PD1H403; VL PD1L470

biological target: T1, cyno PD-1 (soluble analyte in SPR) (cyno); experiment: SPR (ProteOn XPR36), mAb captured on anti-human IgG Fc, cyno PD-1 as analyte, 25 C
T1 construct: also called cynomolgus PD-1
Procedure: (§1) Affinity measurements were performed using a ProteOn XPR36 system (BioRad). […] Approximately 5000 RU (response units) of mAbs were immobilized. The kinetic experiments were performed at 25° C. in running buffer (DPBS+0.01% P20+100 μg/mL BSA). To perform kinetic experiments, 200 RU of mAbs were captured followed by injections of analytes (human and cyno PD-1) at concentrations ranging from 1.563 nM to 400 nM (in a […] serial dilution). The association phase was monitored for 3 minutes at 50 μL/min, then followed by 10 or 15 minutes of buffer flow (dissociation phase). The chip surface was regenerated with two 18 second pulses of 100 mM H₃PO₄ (Sigma, Cat #7961) at 100 μL/min.
(§2) The collected data were processed using ProteOn Manager software. First, the data was corrected for background using inter-spots. Then, double reference subtraction of the data was performed by using the buffer injection for analyte injections. The kinetic analysis of the data was performed using a Langmuir 1:1 binding model. The result for each mAb was reported in the format of ka (On-rate), kd (Off-rate) and KD (equilibrium dissociation constant).
(§3) Affinity of the antibodies to human and cyno PD-1 was measured using SPR as described in Example 1.

Binder	Kd [nM]	koff [s⁻¹]	kon [M⁻¹ s⁻¹]
B1	6.45	0.00129	200000
B2	90	0.00839	93200
B3	9.32	0.000924	99100
B4	4.23	0.000781	185000
B5	72.4	0.00479	66100
B6	2.18	0.000368	169000
B7	3.18	0.000411	129000
B8	11.6	0.00247	212000

biological target: T2, biotinylated Human PD-1/PDCD1 (Acro Biosystems. Cat #PD1-H82E4) (human, UniProt Q15116 25-167, biotinylated); experiment: Fab ELISA: Fab captured by anti-Fd(CH1), biotinylated human PD-1 at 5 nM, streptavidin-HRP chemiluminescence; reference parental PD1B878 Fab
T2 construct: Bought reagent, construct not described
Procedure: For follow-up screening, plasmid DNA was prepared from overnight culture of the TG-1 Escherichia coli cells and the pIX gene was excised by NheI/SpeI digestion. After ligation, the DNA was transformed into TG-1 cells and grown on LB/Agar plates overnight. The next day, colonies were picked, grown overnight, and the cultures used for (i) colony sequencing of the V-regions, and (ii) induction of Fab production. For Fab production, the overnight culture was diluted 100 folds in new media and grown for 5-6 hours at 37° C. Fab production was induced by the addition of fresh media containing IPTG and the cultures were grown overnight at 30° C. The following day, the cultures were spun down and the supernatants, containing the soluble Fab proteins, were used for Fab ELISA. For the ELISA, the soluble Fab proteins were captured onto plates by a polyclonal anti-Fd(CH1) antibody. After washing and blocking, biotinylated Human PD-1/PDCD1 was added at 5 nM concentration. This concentration enabled ranking of the Fab variants, defined as fold change versus the parent, in which the parental Fab, present as a control in all plates, is defined as 100% binding. The biotinylated human PD-1 was detected by HRP-conjugated streptavidin with chemiluminescence measured in a plate reader.

T2 sequence (Q15116 25-167 limits assumed): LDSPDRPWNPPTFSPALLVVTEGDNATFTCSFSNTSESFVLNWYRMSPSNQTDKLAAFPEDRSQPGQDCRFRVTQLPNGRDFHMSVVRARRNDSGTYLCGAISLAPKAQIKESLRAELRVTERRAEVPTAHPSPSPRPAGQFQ

Binder	fold binding relative to parental Fab [fold]
B9	≥ 10
B10	≥ 10
B11	≥ 10
B12	≥ 10
B13	≥ 10

biological target: T3, human PD-1 (soluble analyte in SPR) (human, UniProt Q15116 25-170, limits assumed); experiment: SPR (ProteOn XPR36), mAb captured on anti-human IgG Fc, human PD-1 as analyte, 25 C
T3 construct: also called CD279; PDCD1
Procedure: as §1, §2, §3

T3 sequence (Q15116 25-170 limits assumed): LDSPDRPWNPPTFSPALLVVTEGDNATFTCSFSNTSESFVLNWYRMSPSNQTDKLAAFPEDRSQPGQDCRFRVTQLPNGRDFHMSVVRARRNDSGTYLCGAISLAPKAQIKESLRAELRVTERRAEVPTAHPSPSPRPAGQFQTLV

Binder	Kd [nM]	koff [s⁻¹]	kon [M⁻¹ s⁻¹]
B1	0.911	0.000142	156000
B2	8.09	0.000474	58600
B3	0.83	6.44e-05	77700
B4	0.471	7.12e-05	151000
B5	10.9	0.000341	31300
B6	0.349	4.36e-05	125000
B7	0.214	3e-05	140000
B8	1.44	0.000239	166000

biological target: T3, human PD-1 (soluble analyte in SPR); experiment: SPR (ProteOn XPR36), mAb from crude supernatant captured on anti-human IgG Fc, PD-1 as analyte, 25 C

Binder	Kd [nM]	koff [s⁻¹]	kon [M⁻¹ s⁻¹]
B14	24	0.00843	351000
B15	24.6	0.00744	303000
B16	23	0.00719	313000
B17	21.6	0.00753	349000
B18	39.2	0.00991	253000

biological target: T3, human PD-1 (soluble analyte in SPR); experiment: SPR (ProteOn XPR36), mAb captured on anti-human IgG Fc, PD-1 as analyte, 25 C
Procedure: as §1, §2
Affinity of the parental and humanized antibodies to PD-1 was measured using SPR as described in Example 1.

Binder	Kd [nM]	koff [s⁻¹]	kon [M⁻¹ s⁻¹]
B19	52.4	0.0102	195000
B20	29.1	0.00236	81100
B21	47.1	0.00883	188000
